The source of these data is paper PMC10410706 (Proceedings of the National Academy of Sciences of the …, 2023).

First the molecules themselves.
B3: Smaug 73-278Δ156-196 (Smaug part of the single-chain crystallisation construct) (domain or fragment, Drosophila, UniProt Q23972 73-278, looked up)
chain: LFCEQVTTVTNLFEKWNDCERTVVMYALLKRLRYPSLKFLQYSIDSNLTQNLGTSQTNLSSVVIDINANNPVYLQNLLNAYKTARKEDILHEVLNMLPLLKPGNEEAKLIYLTLIPVAVKDTMQQIVPTELVQQIFSYLLIHPAITSEDRRSLNIWLRHLEDHIQ
B4: Smaug NTD (aa 70-281, His-tag removed) (domain or fragment, Drosophila, UniProt Q23972 70-281, looked up)
chain: SNALFCEQVTTVTNLFEKWNDCERTVVMYALLKRLRYPSLKFLQYSIDSNLTQNLGTSQTNLSSVVIDINANNPVYLQNLLNAYKTFQPCDLLDAMSSSSSDKDSMPCYGSDFQITTSAQCDERKLYARKEDILHEVLNMLPLLKPGNEEAKLIYLTLIPVAVKDTMQQIVPTELVQQIFSYLLIHPAITSEDRRSLNIWLRHLEDHIQAAA
B5: Smoothened 970-1003 synthetic peptide (wild-type) (peptide)
peptide: VPSYGEDELQQAMRLLNAASRQRTEAANEDFGGT

For data set [1], the target named is T1, Smaug NTD (Drosophila melanogaster, UniProt Q23972 70-281).
T1 sequence: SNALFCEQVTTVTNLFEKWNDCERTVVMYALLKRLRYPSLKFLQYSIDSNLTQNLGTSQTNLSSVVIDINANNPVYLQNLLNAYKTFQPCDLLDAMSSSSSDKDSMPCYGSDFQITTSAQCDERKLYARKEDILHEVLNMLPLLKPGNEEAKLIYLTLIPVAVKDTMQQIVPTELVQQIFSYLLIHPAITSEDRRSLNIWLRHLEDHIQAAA
Put plainly: EMSA. A general note: Mobility shift assays separate free from complexed probe on a gel.

Data set [2] addresses B3. Description: crystal structure.
Data set [3] concerns the molecule itself. Put plainly: crystal structure.
Data set [4] addresses B5. Description: ITC. For orientation: In ITC the heat of successive injections is recorded.
Data set [5] has as its target B4. Description: ITC.

B1: R13C (ssRNA)
RNA: AGCACCGUAAAGC
Regarding B1, the binding result in data set [1] is “no binding”.

B2: Smo 970-1003 (Smoothened part of the single-chain crystallisation construct) (peptide)
chain: VPSYGEDELQQAMRLLNAASRQRTEAANEDFGGT
As for B2, the binding result in data set [2] is reported as “binds”.

Regarding B3, in data set [3], the binding result was “binds”.

In general, stoichiometry N refers to the number of molecules, sites or subunits per partner or assembly. Consider B4, for which the “stoichiometry N” value in data set [4] was determined as 1.

As a reminder, the Kd is the free concentration of one partner at which half of the binding sites on the other are occupied at equilibrium, for simple one-to-one binding. Higher therefore signals a looser complex. In the case of B5, binding in data set [5] was put at a Kd of 800 nM.
